Assay results from patent US20150064179A1 (BIOTEST, published 2015).
Values belong to the binder of their own block, whether it stands above or below them.

Columns and labels:
[1] = target: T1, human interleukin 10 (R&D Systems, Cat. No. 217-IL/CF) (human, UniProt P22301 19-178); assay: antigen ELISA on plate-coated hIL-10 (2 µg/ml), COS-7 supernatants adjusted to the same antibody concentration; one concentration, not given
T1 construct: also called hIL-10; human IL-10
From the text: In brief, the expression vectors coding for the light chain and for the heavy chain were transiently cotransfected into COS-7 cells by calcium phosphate precipitation in DMEM containing 10% FCS in a 24-well format. After transfection the medium was replaced by the serum free medium CHO-S-SFM II (Invitrogen, Germany) and the supernatants of the COS-7 cells were collected 2-3 days after transfection. The antibody titer of the humanized antibodies secreted into the supernatants of transfected COS-7 cells were analyzed by a sandwich ELISA. Based on the determined antibody concentrations supernatants of all samples were adjusted to the same antibody concentrations, and all samples were used to analyze binding to human IL-10 in an antigen ELISA, whereby Maxisorb plates (Nunc, Germany) were coated with 2 μg/ml hIL-10 in PBS.

[2] = target: T1, human interleukin 10 (R&D Systems, Cat. …); assay: SPR Biacore 2000, hIL-10 immobilised on CM-5 chip
Protocol: (§1) Surface plasmon resonance analysis was used to measure the association and dissociation rate constants for binding of the different antibodies (murine, chimeric, 3 humanized variants) towards hIL-10 using BIACORE 2000 (Biacore AB, Uppsala, Sweden). hIL-10 was immobilized on a CM-5 sensor chip according to manufacturers conditions. hIL-10 was immobilized by adding a 50 μl aliquot of 20 μg/ml at a flow rate of 5 μl/minute resulting in an immobilization density of 320RU. The immobilized hIL-10 surface was regenerated in a two step cycle by using 0.1M carbonate buffer pH 9.2 and 0.01M HCL/1M NaCl at flow rates of 50 μl/minute for one minute each. Each antibody sample was analyzed at least 4 times in antibody concentration ranges of 20-0.15 μg/ml. Calculations from the sensograms were performed by using the BIA evaluation version 3 (1999) software.
However, slight differences are detectable. […] Slight differences in association and dissociation rates are also detectable.

[3] = target: T1, human interleukin 10 (R&D Systems, Cat. …); assay: SPR Biacore 2000, hIL-10 immobilised on CM-5 chip, antibody as analyte, n=5
Protocol: as §1

[4] = target: T2, recombinant Cynomolgus IL-10 (Cynomolgus, UniProt P79338 19-178); assay: SPR Biacore T100, BT-063 immobilised by amine coupling, rCIL-10 as analyte, assay no 1
T2 construct: also called rCIL-10
Protocol: (§2) The affinity of the BT-63 variant 3 (hVH26/hVL7) to Cynomolgus IL-10 was analysed by additional surface plasmon resonance experiments using a Biacore T100 (Biacore AB, Uppsala, Sweden).
(§3) BT-063 was diluted in 10 mM acetate pH5.5 to 5 μg/mL and immobilized using amine coupling procedure to obtain a final level of about 1000 RU. Regeneration of the sensor chip surface was obtained injecting 10 mM Glycine-HCl pH 1.8 for 30 s. Samples were injected in different concentrations over the flow cell as well as over the reference cell. Signals obtained by the reference cell were subtracted from the signals obtained by the detector flow cell and resulting binding profiles were evaluated using a 1:1 Langmuir-binding model.

[5] = target: T2, recombinant Cynomolgus IL-10; assay: SPR Biacore T100, BT-063 immobilised by amine coupling, rCIL-10 as analyte, assay no 2
Protocol: as §2, §3

[6] = target: T2, recombinant Cynomolgus IL-10; assay: SPR Biacore T100, BT-063 immobilised by amine coupling, rCIL-10 as analyte, assay no 3
Protocol: as §2, §3

[7] = target: T1, human interleukin 10 (R&D Systems, Cat. …); assay: SPR Biacore T100, BT-063 immobilised by amine coupling, rhIL-10 as analyte, assay no 1
[8] = target: T2, recombinant Cynomolgus IL-10; assay: SPR Biacore T100, BT-063 immobilised by amine coupling, IL-10 as analyte, 1:1 Langmuir model, average
Protocol: as §2, §3

[9] = target: T1, human interleukin 10 (R&D Systems, Cat. …); assay: SPR Biacore 2000, hIL-10 immobilised on CM-5 chip, antibody as analyte, n=4
Protocol: as §1

[10] = target: T1, human interleukin 10 (R&D Systems, Cat. …); assay: SPR Biacore 2000, hIL-10 immobilised on CM-5 chip, antibody as analyte, n=6
Protocol: as §1

T1 sequence (P22301 19-178): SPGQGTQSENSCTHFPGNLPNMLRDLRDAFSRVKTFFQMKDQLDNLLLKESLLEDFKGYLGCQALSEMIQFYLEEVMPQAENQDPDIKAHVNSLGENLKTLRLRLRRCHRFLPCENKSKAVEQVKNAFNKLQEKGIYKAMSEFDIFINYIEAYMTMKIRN
T2 sequence (P79338 19-178 limits assumed): as the sequence (P22301 19-178) above, with H14R, N21H, L46I, Q83H, A89E, N129S, I136V counted along it

B1: humanized antibody variant hVH13/hVL8 (antibody, V domains shown)
VH: EVQLVESGGGLVQPGGSLRLSCAASGFTFSTYGVHWVRQAPGKGLEWVSVIWRGGSTDYSAAFMSRFTISRDNSKNTVYFQMNSLRAEDTAVYYCARQAYGHYMDYWGQGTLVTVSS
VL: DVLMTQSPLSLPVTLGQPASISCRSSQNIVHSNGNTYLEWFQQRPGQSPRLLIYKVSNRFSGVPDRFSGSGSGTDFTLKISRVEAEDVGVYYCFQGSHVPWTFGGGTKVEIK
notes: human constant kappa and gamma-1; tested as COS-7 supernatant
binding result [1]: binds

B2: humanized antibody variant hVH18/hVL7 (antibody, V domains shown)
VH: EVQLVESGGGLVQPGGSLRLSCAASGFSFATYGVHWVRQSPGKGLEWLGVIWRGGSTDYSAAFMSRLTISKDNSKNTLYLQMNSLRAEDTAVYYCARQAYGHYMDYWGQGTLVTVSS
VL: DVVMTQSPLSLPVTLGQPASISCRSSQNIVHSNGNTYLEWYLQRPGQSPRLLIYKVSNRFSGVPDRFSGSGSGTDFTLKISRVEAEDVGVYYCFQGSHVPWTFGQGTKVEIK
notes: as for B1
binding result [1]: binds

B3: humanized antibody variant hVH28/hVL8 (antibody, V domains shown)
VH: EVQLVESGGGLVQPGGSLRLSCAASGFSFATYGVHWVRQSPGKGLEWLGVIWRGGSTDYSAAFMSRLTISKDNSKNTVYFQMNSLRAEDTAVYYCARQAYGHYMDYWGQGTSVTVSS
VL: DVLMTQSPLSLPVTLGQPASISCRSSQNIVHSNGNTYLEWFQQRPGQSPRLLIYKVSNRFSGVPDRFSGSGSGTDFTLKISRVEAEDVGVYYCFQGSHVPWTFGGGTKVEIK
notes: as for B1
binding result [1]: binds

B5: BT-063-3 (hVH26/hVL7) (antibody, V domains shown)
VH: EVQLVESGGGLVQPGGSLRLSCAASGFSFATYGVHWVRQSPGKGLEWLGVIWRGGSTDYSAAFMSRLTISKDNSKNTVYLQMNSLRAEDTAVYFCAKQAYGHYMDYWGQGTSVTVSS
VL: DVVMTQSPLSLPVTLGQPASISCRSSQNIVHSNGNTYLEWYLQRPGQSPRLLIYKVSNRFSGVPDRFSGSGSGTDFTLKISRVEAEDVGVYYCFQGSHVPWTFGQGTKVEIK
notes: also called BT-63 variant 3; BT-063 (variant hVH26/hVL7)
factor of reduced affinity compared to the murine B-N10 [2]: ~3 fold
Kd [3]: 2.91 nM
koff [3]: 0.00266 s⁻¹
kon [3]: 1.07e+06 M⁻¹ s⁻¹
Kd [4]: 0.196 nM
koff [4]: 0.012 s⁻¹
kon [4]: 6.2e+07 M⁻¹ s⁻¹
Kd [5]: 0.195 nM
koff [5]: 0.017 s⁻¹
kon [5]: 8.6e+07 M⁻¹ s⁻¹
Kd [6]: 0.191 nM
koff [6]: 0.018 s⁻¹
kon [6]: 9.7e+07 M⁻¹ s⁻¹
Kd [7]: 4.6 nM
koff [7]: 0.003 s⁻¹
kon [7]: 600000 M⁻¹ s⁻¹
Kd [8]: 0.194 nM

B7: BT-063-2 (hVH20/hVL8) (antibody, V domains shown)
VH: EVQLVESGGGLVQPGGSLRLSCAASGFSFATYGVHWVRQSPGKGLEWLGVIWRGGSTDYSAAFMSRLTISKDNSKNTVYFQMNSLRAEDTAVYFCAKQAYGHYMDYWGQGTSVTVSS
VL: DVLMTQSPLSLPVTLGQPASISCRSSQNIVHSNGNTYLEWFQQRPGQSPRLLIYKVSNRFSGVPDRFSGSGSGTDFTLKISRVEAEDVGVYYCFQGSHVPWTFGGGTKVEIK
notes: also called BT-063 variant hVH20/hVL8
factor of reduced affinity compared to the murine B-N10 [2]: ~3 fold
Kd [9]: 2.81 nM
koff [9]: 0.00164 s⁻¹
kon [9]: 1.21e+06 M⁻¹ s⁻¹

B9: BT-063-1 (hVH20/hVL7) (antibody, V domains shown)
VH: EVQLVESGGGLVQPGGSLRLSCAASGFSFATYGVHWVRQSPGKGLEWLGVIWRGGSTDYSAAFMSRLTISKDNSKNTVYFQMNSLRAEDTAVYFCAKQAYGHYMDYWGQGTSVTVSS
VL: DVVMTQSPLSLPVTLGQPASISCRSSQNIVHSNGNTYLEWYLQRPGQSPRLLIYKVSNRFSGVPDRFSGSGSGTDFTLKISRVEAEDVGVYYCFQGSHVPWTFGQGTKVEIK
notes: also called BT-063 variant hVH20/hVL7
Kd [10]: 1.22 nM
koff [10]: 0.00103 s⁻¹
kon [10]: 1.21e+06 M⁻¹ s⁻¹

The remaining lines, values ahead:

binding result [1]: binds
B4: humanized antibody variant hVH18/hVL8 (antibody, V domains shown)
VH: EVQLVESGGGLVQPGGSLRLSCAASGFSFATYGVHWVRQSPGKGLEWLGVIWRGGSTDYSAAFMSRLTISKDNSKNTLYLQMNSLRAEDTAVYYCARQAYGHYMDYWGQGTLVTVSS
VL: DVLMTQSPLSLPVTLGQPASISCRSSQNIVHSNGNTYLEWFQQRPGQSPRLLIYKVSNRFSGVPDRFSGSGSGTDFTLKISRVEAEDVGVYYCFQGSHVPWTFGGGTKVEIK
notes: as for B1

binding result [1]: binds
B6: humanized antibody variant hVH26/hVL8 (antibody, V domains shown)
VH: EVQLVESGGGLVQPGGSLRLSCAASGFSFATYGVHWVRQSPGKGLEWLGVIWRGGSTDYSAAFMSRLTISKDNSKNTVYLQMNSLRAEDTAVYFCAKQAYGHYMDYWGQGTSVTVSS
VL: DVLMTQSPLSLPVTLGQPASISCRSSQNIVHSNGNTYLEWFQQRPGQSPRLLIYKVSNRFSGVPDRFSGSGSGTDFTLKISRVEAEDVGVYYCFQGSHVPWTFGGGTKVEIK
notes: as for B1

binding result [1]: binds
B8: humanized antibody variant hVH13/hVL7 (antibody, V domains shown)
VH: EVQLVESGGGLVQPGGSLRLSCAASGFTFSTYGVHWVRQAPGKGLEWVSVIWRGGSTDYSAAFMSRFTISRDNSKNTVYFQMNSLRAEDTAVYYCARQAYGHYMDYWGQGTLVTVSS
VL: DVVMTQSPLSLPVTLGQPASISCRSSQNIVHSNGNTYLEWYLQRPGQSPRLLIYKVSNRFSGVPDRFSGSGSGTDFTLKISRVEAEDVGVYYCFQGSHVPWTFGQGTKVEIK
notes: as for B1

binding result [1]: binds
B10: humanized antibody variant hVH28/hVL7 (antibody, V domains shown)
VH: EVQLVESGGGLVQPGGSLRLSCAASGFSFATYGVHWVRQSPGKGLEWLGVIWRGGSTDYSAAFMSRLTISKDNSKNTVYFQMNSLRAEDTAVYYCARQAYGHYMDYWGQGTSVTVSS
VL: DVVMTQSPLSLPVTLGQPASISCRSSQNIVHSNGNTYLEWYLQRPGQSPRLLIYKVSNRFSGVPDRFSGSGSGTDFTLKISRVEAEDVGVYYCFQGSHVPWTFGQGTKVEIK
notes: as for B1

binding result [1]: binds
B11: humanized antibody variant hVH1/hVL7 (antibody, V domains shown)
VH: EVQLVESGGGLVQPGGSLRLSCAASGFTFSTYGVHWVRQAPGKGLEWVSVIWRGGSTDYSAAFMSRFTISRDNSKNTLYLQMNSLRAEDTAVYYCARQAYGHYMDYWGQGTLVTVSS
VL: DVVMTQSPLSLPVTLGQPASISCRSSQNIVHSNGNTYLEWYLQRPGQSPRLLIYKVSNRFSGVPDRFSGSGSGTDFTLKISRVEAEDVGVYYCFQGSHVPWTFGQGTKVEIK
notes: as for B1

binding result [1]: binds
B12: humanized antibody variant hVH1/hVL8 (antibody, V domains shown)
VH: EVQLVESGGGLVQPGGSLRLSCAASGFTFSTYGVHWVRQAPGKGLEWVSVIWRGGSTDYSAAFMSRFTISRDNSKNTLYLQMNSLRAEDTAVYYCARQAYGHYMDYWGQGTLVTVSS
VL: DVLMTQSPLSLPVTLGQPASISCRSSQNIVHSNGNTYLEWFQQRPGQSPRLLIYKVSNRFSGVPDRFSGSGSGTDFTLKISRVEAEDVGVYYCFQGSHVPWTFGGGTKVEIK
notes: as for B1

binding result [1]: binds
B13: humanized antibody variant hVH9/hVL7 (antibody, V domains shown)
VH: EVQLVESGGGLVQPGGSLRLSCAASGFTFSTYGVHWVRQAPGKGLEWVSVIWRGGSTDYSAAFMSRFTISRDNSKNTLYLQMNSLRAEDTAVYFCAKQAYGHYMDYWGQGTLVTVSS
VL: DVVMTQSPLSLPVTLGQPASISCRSSQNIVHSNGNTYLEWYLQRPGQSPRLLIYKVSNRFSGVPDRFSGSGSGTDFTLKISRVEAEDVGVYYCFQGSHVPWTFGQGTKVEIK
notes: as for B1
